This assay deals with human myc-tagged essential myosin light chain (ELC) (human) (UniProt P08590). Nature of the assay: co-IP; human myc-tagged ELC overexpressed in HEK293 cells, Myc-Trap magnetic beads, 1 mg lysate over night at 4 °C, immunoblot for endogenous kinases; basal or ionophore (ionomycin 1-5 µM, 4 mM CaCl2, 10 min) stimulation. (Immunoblotting shows a protein as a band on a membrane.)

This passage reports averaged intensity of precipitated NEK9 normalized to actin of input, before doubling the ionophore concentration and averaged intensity of precipitated NEK9 normalized to actin of input, doubled ionophore concentration results from publication PMC9585074.

Sequence of UniProt P08590 (P08590 whole entry): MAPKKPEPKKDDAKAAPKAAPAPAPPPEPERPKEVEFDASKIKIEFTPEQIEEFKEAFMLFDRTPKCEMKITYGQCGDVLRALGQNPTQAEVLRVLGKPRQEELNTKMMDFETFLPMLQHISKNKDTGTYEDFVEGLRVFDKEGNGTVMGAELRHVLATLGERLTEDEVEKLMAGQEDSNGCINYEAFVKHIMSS

B1: NIMA-related kinase 9 (NEK9), human, endogenous in HEK293 cells (enzyme)
chain: MSVLGEYERHCDSINSDFGSESGGCGDSSPGPSASQGPRAGGGAAEQEELHYIPIRVLGRGAFGEATLYRRTEDDSLVVWKEVDLTRLSEKERRDALNEIVILALLQHDNIIAYYNHFMDNTTLLIELEYCNGGNLYDKILRQKDKLFEEEMVVWYLFQIVSAVSCIHKAGILHRDIKTLNIFLTKANLIKLGDYGLAKKLNSEYSMAETLVGTPYYMSPELCQGVKYNFKSDIWAVGCVIFELLTLKRTFDATNPLNLCVKIVQGIRAMEVDSSQYSLELIQMVHSCLDQDPEQRPTADELLDRPLLRKRRREMEEKVTLLNAPTKRPRSSTVTEAPIAVVTSRTSEVYVWGGGKSTPQKLDVIKSGCSARQVCAGNTHFAVVTVEKELYTWVNMQGGTKLHGQLGHGDKASYRQPKHVEKLQGKAIRQVSCGDDFTVCVTDEGQLYAFGSDYYGCMGVDKVAGPEVLEPMQLNFFLSNPVEQVSCGDNHVVVLTRNKEVYSWGCGEYGRLGLDSEEDYYTPQKVDVPKALIIVAVQCGCDGTFLLTQSGKVLACGLNEFNKLGLNQCMSGIINHEAYHEVPYTTSFTLAKQLSFYKIRTIAPGKTHTAAIDERGRLLTFGCNKCGQLGVGNYKKRLGINLLGGPLGGKQVIRVSCGDEFTIAATDDNHIFAWGNGGNGRLAMTPTERPHGSDICTSWPRPIFGSLHHVPDLSCRGWHTILIVEKVLNSKTIRSNSSGLSIGTVFQSSSPGGGGGGGGGEEEDSQQESETPDPSGGFRGTMEADRGMEGLISPTEAMGNSNGASSSCPGWLRKELENAEFIPMPDSPSPLSAAFSESEKDTLPYEELQGLKVASEAPLEHKPQVEASSPRLNPAVTCAGKGTPLTPPACACSSLQVEVERLQGLVLKCLAEQQKLQQENLQIFTQLQKLNKKLEGGQQVGMHSKGTQTAKEEMEMDPKPDLDSDSWCLLGTDSCRPSL
Molecule B1 gave an averaged intensity of precipitated NEK9 normalized to actin of input, before doubling the ionophore concentration of 0.35 and an averaged intensity of precipitated NEK9 normalized to actin of input, doubled ionophore concentration of 1.01.
